Paper PMC1971552, “A chelating derivative of alpha-melanocyte stimulating hormone as a potential imaging agent for malignant melanoma” (British Journal of Cancer, 1990)

Test system: DBA/2 mice bearing Cloudman S91 melanomas
Conditions: mouse, in vivo
Source text: Br. J. Cancer (1990), 62, 919-922 C) Macmillan Press Ltd., 1990 A chelating derivative of oa-melanocyte stimulating hormone as a potential imaging agent for malignant melanoma D.R. Bard, C.G. Knight & D.P. Page-Thomas Strangeways Research Laboratory, Worts' Causeway, Cambridge CB] 4RN, UK Summary A chelating derivative of a-melanocyte stimulating hormone (MSH) has been synthesised, in which two molecules of the hormone are cross-linked by diethylenetriamine pentaacetic acid (DTPA). […] When DBA/2 mice bearing the same tumour were injected with bisMSH-DTPA labelled with the 'y-emitting isotope indium-1Il ("'In), the radioactivity became rapidly associated with the melanoma tissue. […] Uptake of radioactivity by the tumours was inhibited by a 200-fold molar excess of MSH, whereas uptake by liver, kidney, spleen, lung, brain, eye and skin was unaffected. We conclude that bisMSH-DTPA may offer an alternative to antibody targeting in the imaging of malignant melanoma. Malignant melanoma is characterised by a tendency to meta- stasise early and to be resistant to most conventional therapies. The initial surgical management of the disease would benefit if it were possible to discover whether metas- tasis had taken place and to which locations. […]

Q: `CSCC[C@H](NC(=O)[C@H](CO)NC(=O)[C@H](Cc1ccc(O)cc1)NC(=O)[C@H](CO)NC(=O)CN(CCN(CCN(CC(=O)O)CC(=O)N[C@@H](CO)C(=O)N[C@@H](Cc1ccc(O)cc1)C(=O)N[C@@H](CO)C(=O)N[C@@H](CCSC)C(=O)N[C@@H](CCC(=O)O)C(=O)N[C@@H](Cc1c[nH]cn1)C(=O)N[C@@H](Cc1ccccc1)C(=O)N[C@@H](CCCNC(=N)N)C(=O)N[C@@H](Cc1c[nH]c2ccccc12)C(=O)NCC(=O)N[C@@H](CCCCN)C(=O)N1CCC[C@H]1C(=O)N[C@H](C(N)=O)C(C)C)CC(=O)O)CC(=O)O)C(=O)N[C@@H](CCC(=O)O)C(=O)N[C@@H](Cc1c[nH]cn1)C(=O)N[C@@H](Cc1ccccc1)C(=O)N[C@@H](CCCNC(=N)N)C(=O)N[C@@H](Cc1c[nH]c2ccccc12)C(=O)NCC(=O)N[C@@H](CCCCN)C(=O)N1CCC[C@H]1C(=O)N[C@H](C(N)=O)C(C)C` [bisMSH-DTPA] was tested. Which “crossing of the blood-brain barrier” value did it give?
A: unable to cross the blood-brain barrier

Q: And the “maximum level in the blood following injection” value (ip)?
A: about 0.8 µg ml-1
